Measurements: US20130344073

Key:
[1] = target: pro-factor D-His (UniProt P00746)
[2] = target: ST-pro-factor D-His (UniProt P00746)

Chain of full length wild type recombinant human MASP-3 (chain): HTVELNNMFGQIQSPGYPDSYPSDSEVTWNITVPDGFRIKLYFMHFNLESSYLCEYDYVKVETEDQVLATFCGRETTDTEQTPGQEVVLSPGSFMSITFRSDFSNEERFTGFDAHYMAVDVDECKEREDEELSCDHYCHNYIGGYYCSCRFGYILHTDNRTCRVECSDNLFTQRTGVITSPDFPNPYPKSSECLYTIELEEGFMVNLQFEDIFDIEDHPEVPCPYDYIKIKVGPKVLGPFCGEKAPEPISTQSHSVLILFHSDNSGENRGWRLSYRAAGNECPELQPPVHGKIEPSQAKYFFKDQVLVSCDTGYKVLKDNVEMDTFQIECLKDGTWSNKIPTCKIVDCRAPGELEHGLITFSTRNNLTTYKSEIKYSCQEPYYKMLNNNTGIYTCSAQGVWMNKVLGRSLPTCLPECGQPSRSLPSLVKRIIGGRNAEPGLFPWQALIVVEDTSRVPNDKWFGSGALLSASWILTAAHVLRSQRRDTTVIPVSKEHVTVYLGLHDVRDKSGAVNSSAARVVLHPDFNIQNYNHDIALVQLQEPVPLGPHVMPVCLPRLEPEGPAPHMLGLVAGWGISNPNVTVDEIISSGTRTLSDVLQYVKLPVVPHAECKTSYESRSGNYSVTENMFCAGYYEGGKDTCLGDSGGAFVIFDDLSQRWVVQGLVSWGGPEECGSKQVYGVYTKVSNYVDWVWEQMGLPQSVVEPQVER

Row | Substance | cleavage of pro-factor D (Western blot) [1] | cleavage of pro-factor D (Western blot) [2]
1 | catalytically-inactive full length MASP-3 (S679A) | The catalytically-inactive full length MASP-3 (S679A; lane 3) and MASP-1 (S646A; lane 3) failed to cleave either substrate | The catalytically-inactive full length MASP-3 (S679A; lane 3) and MASP-1 (S646A; lane 3) failed to cleave either substrate
2 | full length wild type recombinant human MASP-3 | Identical results were obtained with the pro-factor D-His6 polypeptide (not shown) | only full length MASP-3 (lane 2) and the MASP-1 CCP1-CCP2-SP) fragment (lane 5) cleaved ST-pro-factor D-His6
